From US9931401B2, “Combination comprising anti-fibroblast growth factor receptor 2 (FGFR2) antibody and a tyrosine kinase inhibitor” (Daiichi Sankyo Company, Limited, priority 2013, dated 2018)
Entries after “also recorded” stand apart in the source; their conditions may differ.

Experiments:
[1] = system: FGFR2, FRS2, and ERK phosphorylation in stomach cancer cell line SNU-16; experiment: FGFR2 signal inhibitory effect on SNU-16 by Western blotting; type: cell-based, human; conditions: FGF7 10 ng/ml, 10 minutes
Procedure: The FGFR2 signal inhibitory effect of the obtained antibody was tested using a stomach cancer cell line SNU-16 endogenously expressing FGFR2. SNU-16 cells (3×10^6) suspended in an RPMI medium containing 0.1% bovine serum albumin were seeded onto a 12-well plate and incubated overnight. The rat FR2-10 antibody was added thereto, and the cells were incubated at 37° C. for 1 hour. Then, 10 ng/ml FGF7 (manufactured by R&D systems, Inc.) was added thereto, and the cells were further incubated for 10 minutes. Subsequently, the cells were lysed with an RIPA buffer (1% NP-40, 0.5% sodium deoxycholate, and 0.1% SDS in PBS) containing Complete Mini (manufactured by Roche Applied Science) and a phosphatase inhibitor (manufactured by Nacalai Tesque Inc.). The lysates were centrifuged to obtain the cell lysis solution, and the protein concentration was determined using BCA protein assay (manufactured by Pierce Biotechnology, Inc.). The lysates were resuspended in a DTT-containing buffer and denatured at 99° C. for 5 minutes. The protein (20 μg/lane) was separated by SDS-PAGE on a 5 to 20% gel. The protein was blotted onto a PVDF membrane (manufactured by Bio-Rad Laboratories, Inc.). The membrane was blocked with TBS-T (2 mM Tris, 50 mM NaCl, and 0.1% Tween-20 (pH 7.4)) containing 5% skimmed milk (MEGMILK SNOW BRAND Co., Ltd.) at room temperature for 1 hour. […]

human FGFR2 IIIc = biological target: T1, human FGFR2 IIIc (Homo sapiens, UniProt P21802); experiment: Elk1 luciferase reporter gene assay, FGFR2 IIIc-expressing 293α cells, ligand FGF9; type: cell-based; conditions: antibody preincubated 1 hour; FGF9 10 ng/ml, 6 hours
T1 construct: a human FGFR2 IIIc variant protein (isoform 1: NP_000132); expressed in transfected cells; host or cells: 293α cells (HEK293 stably transfected with integrin αv and β3)
Procedure: The Elk1 luciferase reporter gene assay was carried out using each hybridoma culture supernatant selected in Example 1)-5. A cell line 293α, which was HEK293 cells stably transfected with integrin αv and integrin β3 expression vectors, was transiently cotransfected with pcDNA-DEST40-FGFR2 IIIb or pcDNA-DEST40, pFA2-Elk1 (manufactured by Stratagene Corp.), pFR-Luc2CP, and pGL4.74[hRluc/TK] (manufactured by Promega Corp.) according to transfection procedures using Lipofectamine 2000 (manufactured by Invitrogen Corp.), inoculated to a white 96-well cell culture plate (manufactured by Corning Inc.), and cultured overnight at 37° C. under 5% CO2 conditions. On the next day, the culture supernatant was removed, and the hybridoma culture supernatant diluted 5-fold with DMEM containing 5% FBS was added at a concentration of 50 μl/well to the plate. […] The firefly/Renilla ratio was calculated to normalize data on each well.
In order to evaluate the signal-neutralizing effects of the obtained antibodies by the Elk1 luciferase reporter gene assay, 293α cells were cotransfected with pcDNA-DEST40-FGFR2 IIIb or pcDNA-DEST40-FGFR2 IIIc constructed in Example 1)-3-1, pFA2-Elk1 (manufactured by Stratagene Corp.), pFR-Luc2CP, and pGL4.74[hRluc/TK] […] The firefly/Renilla ratio was calculated to normalize data on each well. […]

T1 sequence (P21802 22-821): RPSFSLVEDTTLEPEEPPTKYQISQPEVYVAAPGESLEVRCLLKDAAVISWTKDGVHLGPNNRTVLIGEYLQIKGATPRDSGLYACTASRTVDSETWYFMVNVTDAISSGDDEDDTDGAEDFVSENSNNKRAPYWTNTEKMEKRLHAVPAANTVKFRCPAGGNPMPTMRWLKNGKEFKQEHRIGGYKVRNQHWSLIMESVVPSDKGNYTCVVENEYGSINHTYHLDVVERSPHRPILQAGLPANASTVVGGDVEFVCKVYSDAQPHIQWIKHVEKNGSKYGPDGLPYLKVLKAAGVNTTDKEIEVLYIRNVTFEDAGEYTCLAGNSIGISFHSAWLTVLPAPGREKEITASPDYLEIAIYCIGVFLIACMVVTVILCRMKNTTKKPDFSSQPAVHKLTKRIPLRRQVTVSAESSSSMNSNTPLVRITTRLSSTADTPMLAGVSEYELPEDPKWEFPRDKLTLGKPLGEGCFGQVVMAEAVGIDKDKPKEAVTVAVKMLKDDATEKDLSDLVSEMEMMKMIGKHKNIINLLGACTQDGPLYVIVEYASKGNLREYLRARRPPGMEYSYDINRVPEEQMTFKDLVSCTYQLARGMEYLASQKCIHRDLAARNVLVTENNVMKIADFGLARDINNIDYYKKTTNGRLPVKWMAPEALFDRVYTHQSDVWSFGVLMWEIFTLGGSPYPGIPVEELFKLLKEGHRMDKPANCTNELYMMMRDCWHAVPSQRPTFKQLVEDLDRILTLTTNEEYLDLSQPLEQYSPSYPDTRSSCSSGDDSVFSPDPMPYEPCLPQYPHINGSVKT

B1: FR2-10: anti-human FGFR2 rat monoclonal antibody obtained by the method described in Example 1; VH SEQ ID NO: 12, VL SEQ ID NO: 21 (antibody, listed as Rattus norvegicus, V domains shown)
VH: EVQLVESGGGLVQPGRSLKLSCVASGFRFNDFWMTWIRQAPGKGLEWVASITYTGDNTYYAGSVKGRITISRDNAKSTLYLQMNSLRSEDTATYYCTRDDYGGYSPYYMDAWGQGTSVTVSS
VL: DIQMTQSPSSLSAFLGDRVTITCRASQDIGNYLRWFQQKPGKSPRLMIYGATNLANGVPSRFSGSRSGSDYSLTINNLESEDMAIYYCLKHNEYPFTFGSGTKLEIKRA
phosphorylation of FGFR2, FRS2, and ERK induced by FGF7 [1]: inhibited FGFR2, FRS2, and ERK phosphorylation; also recorded: inhibited the increase in the phosphorylation of these molecules in a concentration dependent manner

B2: FR2-13: anti-human FGFR2 rat monoclonal antibody obtained by the method described in Example 1; VH SEQ ID NO: 14, VL SEQ ID NO: 24 (antibody, listed as Rattus norvegicus, V domains shown)
VH: QVKLLQSGAELVKPGASVKLSCKTSGFTFSTSYMSWLKQVPGPSIEWIGWIYAGDGGTKYNQKFKGKATLTVDKSSSTAYMDLSSLTSEDAAVYFCATDGYGDWFAYWGQGTLVTVSS
VL: DIQMTQSPASLSASLGETVTIECRASEDIYSNLAWYQQKPGNSPQLLIYDANILADGVPSRFSGSGSGTQYSLKINSLQSEDVASYFCQQYNNYPPFTFGVGTKLELKRA
ligand FGF9 dependent reporter activation in the FGFR2 IIIc-expressing cells (human FGFR2 IIIc): inhibited

B3: FR2-14: anti-human FGFR2 rat monoclonal antibody obtained by the method described in Example 1; VH SEQ ID NO: 16, VL SEQ ID NO: 26 (antibody, listed as Rattus norvegicus, V domains shown)
VH: QVKLLQSGAELVKPGASVKLSCKTSGFTFSTSYMSWLKQVPGPSTEWIGWIYAGDGGTKYNQKFKGKATLTVDKFSSTAYMDLSSLTSEDAAVYFCATDGYGDWFTYWGQGTLVTVSS
VL: DIQMTQSPASLSASLGETVTIECRASEDIYSNLAWYQQKPGNSPQLLIYDANILADGVPSRFSGSGSGTQYSLKINSLQSEDVASYFCQQYNNYPPFTFGAGTKLELKRA
ligand FGF9 dependent reporter activation in the FGFR2 IIIc-expressing cells (human FGFR2 IIIc): inhibited
